Test results taken from publication PMC10708888, “Evolution towards simplicity in bacterial small heat shock protein system” (eLife, 2023).
Positions count from the first letter of the chain named. Names and notes keep the numbering of the source.

Legend:
[1] = biological target: heat-aggregated E. coli proteins; assay: biolayer interferometry (BLI); details: value read at the end of the association phase (~60 min), read off a plot
[2] = biological target: the molecule itself; assay: dynamic light scattering; 10 µM sHsp in buffer F (50 mM Tris pH 7.5, 150 mM KCl, 20 mM MgCl2, 2.5 mM DTT); oligomer size measured at 25 °C and 44 °C in repeated cycles
[3] = biological target: T1, His-tagged luciferase, heat-aggregated on the BLI sensor (firefly, UniProt P08659 1-550 = luciferase); assay: BLI; ForteBio BLItz; His-tagged luciferase aggregated on the sensor; 5 µM sHsp (preincubated 10 min at 44 °C) bound for 10 min, then buffer F or Hsp70 system (0.7 µM DnaK, 0.28 µM DnaJ, 0.21 µM GrpE, 5 mM ATP) for 1 hr; room temperature; details: both partners purified
T1 construct: firefly luciferase, His-tagged construct of Obuchowski et al., 2019; anchoring layer attached to NTA sensors in 4.5 M urea, then aggregate formed at 44 °C; also called aggregated luciferase; luciferase aggregates; source: purified as described previously (Obuchowski et al., 2019)
T1 sequence (P08659 whole entry): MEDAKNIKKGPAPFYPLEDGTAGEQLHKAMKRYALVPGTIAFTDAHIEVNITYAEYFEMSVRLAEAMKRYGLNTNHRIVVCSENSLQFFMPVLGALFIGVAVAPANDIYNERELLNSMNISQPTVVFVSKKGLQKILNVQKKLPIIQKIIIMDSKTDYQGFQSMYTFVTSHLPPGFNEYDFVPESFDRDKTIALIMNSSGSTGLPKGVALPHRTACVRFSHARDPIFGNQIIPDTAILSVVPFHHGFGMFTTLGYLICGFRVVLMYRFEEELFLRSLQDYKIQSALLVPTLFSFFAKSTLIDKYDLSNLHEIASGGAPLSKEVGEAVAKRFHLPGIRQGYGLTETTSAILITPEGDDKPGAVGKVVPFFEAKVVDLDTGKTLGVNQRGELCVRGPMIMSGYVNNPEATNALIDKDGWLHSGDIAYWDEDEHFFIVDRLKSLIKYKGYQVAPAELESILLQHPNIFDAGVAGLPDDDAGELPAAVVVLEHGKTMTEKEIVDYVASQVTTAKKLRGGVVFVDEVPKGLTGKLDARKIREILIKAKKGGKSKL

For “IbpA from Escherichia coli (from UniProt P0C054) Q66H; G109D”, the response ([1]; parent: est. 2.7) was 1.5 nm.

“IbpA from Erwinia amylovora (from UniProt A0ABX7MII2) H67Q; D110G” showed a response ([1]; parent: est. 0.91) of 1.4 nm.

B1: IbpA_(E.coli) Q66H G109D (natural protein, E. coli, UniProt P0C054 1-137, looked up)
chain: MRNFDLSPLYRSAIGFDRLFNHLENNQSQSNGGYPPYNVELVDENHYRIAIAVAGFAESELEITAHDNLLVVKGAHADEQKERTYLYQGIAERNFERKFQLAENIHVRDANLVNGLLYIDLERVIPEAKKPRRIEIN
notes: IbpA, small heat shock protein of E. coli, with AncA1-like substitutions; source: purified
B1: binds [2]; binds [3].

B2: IbpA from Escherichia coli (natural protein, E. coli, UniProt P0C054 1-137, looked up)
chain: B1 chain with H66Q, D109G
notes: IbpA, small heat shock protein of E. coli; also called IbpA_(E. coli); IbpAEc; source: purified as described previously (Ratajczak et al., 2009)
B2: binds [3].
